From patent US20230303680A1 (UNIVERSIT T Z RICH, published 2023)

Columns and labels:
[1] = target: T1, human interleukin-2 (recombinant human IL-2, teceleukin) (human, UniProt P60568 21-153); test: single-cycle surface plasmon resonance (SPR)
T1 construct: also called hIL-2; rhIL-2

[2] = target: T1, human interleukin-2 (recombinant human …); test: SPR, mAb immobilized, IL-2 injected
Procedure: Chip surface was regenerated after every cycle using glycine buffer pH 1.5. Measurements were acquired at 20° C. and analysed on a Biacore T100 (GE Healthcare).

[3] = target: T1, human interleukin-2 (recombinant human …); test: single-cycle SPR
[4] = target: T2, mouse IL-2 (mouse, UniProt P04351 21-169); test: SPR (Table 1)
T2 sequence (looked up): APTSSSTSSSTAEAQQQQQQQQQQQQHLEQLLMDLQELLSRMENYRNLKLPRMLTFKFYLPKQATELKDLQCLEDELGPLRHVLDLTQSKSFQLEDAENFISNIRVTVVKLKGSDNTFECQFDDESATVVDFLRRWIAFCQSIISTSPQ

[5] = target: T1, human interleukin-2 (recombinant human …); test: SPR (Table 1)

T1 sequence (P60568 21-153 limits assumed): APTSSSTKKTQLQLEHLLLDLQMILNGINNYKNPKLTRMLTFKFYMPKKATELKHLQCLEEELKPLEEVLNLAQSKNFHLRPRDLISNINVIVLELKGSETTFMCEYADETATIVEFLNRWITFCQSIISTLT

B1: UFKA-20 (mouse anti-human IL-2 monoclonal antibody) (antibody, V domains shown)
VH: EVMLVESGGGLVKPGGSLKLSCAASGFSFSNYAMSWVRQTPERRLEWVALISGGGSYSYYPDSLKGRFTISRDSARNSLYLQMSSLRSEDTAMYYCARHMGYNDYLAWFAYWGQGTLVTVSS
VL: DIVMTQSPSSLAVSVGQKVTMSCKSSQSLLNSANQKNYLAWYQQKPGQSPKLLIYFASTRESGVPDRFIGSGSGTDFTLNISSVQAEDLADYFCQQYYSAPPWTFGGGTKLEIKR
notes: Full mouse heavy and light chains; also called UFKA-20-00; 1+6
Kd [1]: 0.788 nM | Kd [2]: 2.3 nM | koff [2]: 0.000391 s⁻¹ | kon [2]: 257000 M⁻¹ s⁻¹

B2: UFKA-20 variant 2+9 (antibody, V domains shown)
VH: EVMLVESGGGLVKPGGSLKLSCAASGFSFSNYAMSWVRQTPERRLEWVALISGGGRYSYYPDSLKGRFTISRDSARNSLYLQMSSLRSEDTAMYYCARHMGKNDYLAWFAYWGQGTLVTVSS
VL: DIVMTQSPSSLAVSVGQKVTMSCKSSQSLLNSANQRNYLAWYQQKPGQSPKLLIYWASTRESGVPDRFIGSGSGTDFTLNISSVQAEDLADYFCQQYYSAPPWTFGGGTKLEIKR
Kd [3]: 64 nM

B3: UFKA-20 variant 5+9 (antibody, V domains shown)
VH: EVMLVESGGGLVKPGGSLKLSCAASGFSFSNYAMSWVRQTPERRLEWVALISGGGRYSYYPDSLKGRFTISRDSARNSLYLQMSSLRSEDTAMYYCARHLGHNDYLAWFAYWGQGTLVTVSS
VL: DIVMTQSPSSLAVSVGQKVTMSCKSSQSLLNSANQRNYLAWYQQKPGQSPKLLIYWASTRESGVPDRFIGSGSGTDFTLNISSVQAEDLADYFCQQYYSAPPWTFGGGTKLEIKR
Kd [3]: 0.186 nM

B4: JES6-1 (anti-mouse IL-2 mAb) (antibody, V domains shown)
VH: EIQLQQSGPELRRPGSSVKLSCKASGYNITDYLIHWVRHRPEHGLEWIGWIDPEDGETRYAQKFQSKATLTADTSSNAAYMQLSSLTPEDTATYFCARSLDSTYIYPFAYWGQGTLVTVSS
VL: DIVMTQSPFSLAVSEGEMVTINCKSSQSLLSSGNQKNYLAWYQQKPGQSPKLLIYYASTGQSGVPDRFIGSGSGTDFTLTISDVQAEDLADYYCLQHYISPPTFGAGTKLELK
Kd [4]: 5.6 nM

B5: F5111 (anti-human IL-2 mAb) (antibody, V domains shown)
VH: QLQLQESGPGLVKPSQTLSLTCTVSGGSISSGGYYWSWIRQHPGKGLEWIGYIYYSGSTYYNPSLKSRVTISVDTSKNQFSLKLSSVTAADTAVYYCARTPTVTGDWFDPWGRGTLVTVSS
VL: NFMLTQPHSVSESPGKTVTISCTRSSGSIASNYVQWYQQRPGSSPTTVIYEDNQRPSGVPDRFSGSIDSSSNSASLTISGLKTEDEADYYCQSYDSSNVVFGGGTKLTVL
Kd [5]: 1.88 nM | koff [5]: 0.00711 s⁻¹ | kon [5]: 3.78e+06 M⁻¹ s⁻¹
